Biological target: T1, human Melanoma-associated Chondroitin Sulfate Proteoglycan (MCSP) (human, UniProt Q6UVK1 30-2322)
T1 construct: whole, on cells; also called CSPG4; NG2
Experiment: flow cytometry on B16F10-MCSP (C25) cells, detected with Strep-PE or fold-specific anti-H-2K antibody

T1 sequence (Q6UVK1 30-2322): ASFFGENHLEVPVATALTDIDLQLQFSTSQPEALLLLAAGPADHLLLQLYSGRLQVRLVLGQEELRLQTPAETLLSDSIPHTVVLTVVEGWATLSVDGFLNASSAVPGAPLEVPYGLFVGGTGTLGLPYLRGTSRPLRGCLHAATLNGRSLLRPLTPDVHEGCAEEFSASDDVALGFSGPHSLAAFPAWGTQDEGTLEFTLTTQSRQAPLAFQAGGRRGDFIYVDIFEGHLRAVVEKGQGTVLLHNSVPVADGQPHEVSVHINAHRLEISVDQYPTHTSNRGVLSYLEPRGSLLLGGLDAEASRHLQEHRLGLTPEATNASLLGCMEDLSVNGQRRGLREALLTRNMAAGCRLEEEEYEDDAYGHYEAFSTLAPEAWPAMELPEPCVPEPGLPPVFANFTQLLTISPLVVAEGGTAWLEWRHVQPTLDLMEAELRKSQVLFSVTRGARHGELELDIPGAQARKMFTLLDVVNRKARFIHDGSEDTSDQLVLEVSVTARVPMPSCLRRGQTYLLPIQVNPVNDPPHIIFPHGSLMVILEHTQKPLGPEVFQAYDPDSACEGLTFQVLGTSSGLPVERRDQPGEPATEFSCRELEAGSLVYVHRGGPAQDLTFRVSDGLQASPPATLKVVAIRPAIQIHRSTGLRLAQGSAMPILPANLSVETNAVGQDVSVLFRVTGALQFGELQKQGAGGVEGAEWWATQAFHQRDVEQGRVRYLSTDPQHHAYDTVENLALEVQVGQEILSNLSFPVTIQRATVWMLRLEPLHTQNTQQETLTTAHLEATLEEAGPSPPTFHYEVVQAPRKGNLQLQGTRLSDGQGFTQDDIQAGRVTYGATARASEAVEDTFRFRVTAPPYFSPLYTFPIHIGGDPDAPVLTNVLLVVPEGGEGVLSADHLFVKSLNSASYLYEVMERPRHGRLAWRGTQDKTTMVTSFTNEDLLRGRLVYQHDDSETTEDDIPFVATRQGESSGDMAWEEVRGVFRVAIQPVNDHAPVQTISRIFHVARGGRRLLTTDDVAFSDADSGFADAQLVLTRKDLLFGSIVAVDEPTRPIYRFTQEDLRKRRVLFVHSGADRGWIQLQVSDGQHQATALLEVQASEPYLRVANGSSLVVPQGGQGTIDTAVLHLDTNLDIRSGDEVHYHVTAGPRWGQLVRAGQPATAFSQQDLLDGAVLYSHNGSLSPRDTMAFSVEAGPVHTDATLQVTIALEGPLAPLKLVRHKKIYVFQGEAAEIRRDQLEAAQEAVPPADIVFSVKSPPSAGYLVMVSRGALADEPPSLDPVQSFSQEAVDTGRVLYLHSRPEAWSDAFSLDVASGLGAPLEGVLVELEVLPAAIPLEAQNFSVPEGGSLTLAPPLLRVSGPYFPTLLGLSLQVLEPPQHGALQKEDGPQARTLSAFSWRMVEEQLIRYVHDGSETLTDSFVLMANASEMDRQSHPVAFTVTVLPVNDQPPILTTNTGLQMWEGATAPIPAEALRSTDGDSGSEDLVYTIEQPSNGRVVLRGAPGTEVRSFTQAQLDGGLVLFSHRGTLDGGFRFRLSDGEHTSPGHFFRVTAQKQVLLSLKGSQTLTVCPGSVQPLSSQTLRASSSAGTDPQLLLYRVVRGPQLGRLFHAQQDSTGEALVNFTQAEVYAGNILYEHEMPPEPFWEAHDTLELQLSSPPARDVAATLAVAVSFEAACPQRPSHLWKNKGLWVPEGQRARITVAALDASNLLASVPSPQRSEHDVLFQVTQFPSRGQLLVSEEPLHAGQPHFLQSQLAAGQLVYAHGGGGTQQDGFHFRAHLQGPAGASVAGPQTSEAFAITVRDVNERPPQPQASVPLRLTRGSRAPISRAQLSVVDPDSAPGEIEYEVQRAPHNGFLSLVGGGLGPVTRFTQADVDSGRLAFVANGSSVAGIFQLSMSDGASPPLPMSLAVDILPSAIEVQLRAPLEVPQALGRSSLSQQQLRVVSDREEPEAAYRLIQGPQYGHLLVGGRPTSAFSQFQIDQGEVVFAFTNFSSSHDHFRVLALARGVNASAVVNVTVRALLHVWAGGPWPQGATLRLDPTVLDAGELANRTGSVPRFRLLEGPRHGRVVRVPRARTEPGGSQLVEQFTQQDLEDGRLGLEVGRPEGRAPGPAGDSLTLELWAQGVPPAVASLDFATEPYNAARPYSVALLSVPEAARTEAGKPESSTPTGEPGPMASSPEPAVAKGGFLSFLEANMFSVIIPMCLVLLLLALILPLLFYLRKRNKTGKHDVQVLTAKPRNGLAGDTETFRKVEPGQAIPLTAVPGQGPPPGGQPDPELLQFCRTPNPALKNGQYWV

B1: BA3 biotinylated peptide-H-2Kd-anti-MCSP scFv fusion protein, 20 amino acid β2M-MHC linker (peptide-MHC)
chain: TYQRTRALVGGGGSGGGGSGGGGSIQKTPQIQVYSRHPPENGKPNILNCYVTQFHPPHIEIQMLKNGKKIPKVEMSDMSFSKDWSFYILAHTEFTPTETDTYACRVKHVSMAEPKTVYWDRDMGGGGSGGGGSGGGGSGGGGSGPHSLRYFVTAVSRPGLGEPRFIAVGYVDDTQFVRFDSDADNPRFEPRAPWMEQEGPEYWEEQTQRAKSDEQWFRVSLRTAQRYYNQSKGGSHTFQRMFGCDVGSDWRLLRGYQQFAYDGRDYIALNEDLKTWTAADTAALITRRKWEQAGDAEYYRAYLEGECVEWLRRYLELGNETLLRTDSPKAHVTYHPRSQVDVTLRCWALGFYPADITLTWQLNGEDLTQDMELVETRPAGDGTFQKWAAVVVPLGKEQNYTCHVHHKGLPEPLTLRWKLPPSTASGGQVKLQQSGGGLVQPGGSMKLSCVVSGFTFSNYWMNWVRQSPEKGLEWIAEIRLKSNNFGRYYAESVKGRFTISRDDSKSSAYLQMINLRAEDTGIYYCTSYGNYVGHYFDHWGQGTTVTVSSGGGGSGGGGSGGGGSDIELTQSPKFMSTSVGDRVSVTCKASQNVDTNVAWYQQKPGQSPEPLLFSASYRYTGVPDRFTGSGSGTDFTLTISNVQSEDLAEYFCQQYNSYPLTFGGGTKLEIKRAHHHHHHGLNDIFEAQKIEWH
notes: also called BA-biotin fusion molecule; biotinylated ScFv-MHC molecule
- binding result: binds

Source: patent publication US20200385441A1 (TECHNION RESEARCH AND DEVELOPMENT FOUNDATION, published 2020)
